From FireProtDB (doi:10.1074/jbc.m111.277210)
Values joined by “and” are separate entries in the source; they are usually repeats but may differ in a detail not shown here. Identical values can stand only once.

B1: D163A|D164A|D165A|G166A|D167A|D168A, Q72SM7 (parent)
chain: MKKLSILAISVALFASITACGAFGGLPSLKSSFVLSEDTIPGTNETVKTLLPYGSVINYYGYVKPGQAPDGLVDGNKKAYYLYVWIPAVIAEMGVRMISPTGEIGEPGDGDLVSDAFKAATPEEKSMPHWFDTWIRVERMSAIMPDQIAKAAKAKPVQKLDDDDDGDDTYKEERHNKYNSLTRIKIPNPPKSFDDLKNIDTKKLLVRGLYRISFTTYKPGEVKGSFVASVGLLFPPGIPGVSPLIHSNPEELQKQAIAAEESLKKAASDATK

Variants of: B1
Conditions: Leptospira interrogans serogroup Icterohaemorrhagiae serovar copenhageni (strain Fiocruz L1-130); pH 8; Thermal; CD; Tris-HCl; KCl; structure 3FRL; whole UniProt chain shown

With D163A D164A D165A G166A D167A D168A as the variant, how does the Tm read?
The Tm was 51 °C and 52 °C.

Which “change of melting temperature, mutant - wild type (higher = more stable)” value does the source give for Q67A here?
The value was 0 °C.

For S247A, which “change of melting temperature, mutant - wild type (higher = more stable)” value is on record?
The value was 0 °C and -1 °C.
